Columns and labels:
[1] = biological target: Biotin-labeled KRAS-G12D protein (UniProt P01116-2 1-169, limits assumed, biotin label (site not stated); loaded with BODIPY-GDP); assay: cell-based or functional assay
[2] = biological target: KRAS-G12D in AsPC-1 cells (UniProt P01116); assay: cell-based or functional assay

| Substance | SOS assay EC50 [1] | AlphaScreen @18 h, EC50 [2] |
| --- | --- | --- |
| cyclo(FLac-NMeA-PyrimAla-cPrA-Phe2F-Hag-NMeHag-amBCP) (peptide) | 225 nM | 41200 nM |
| cyclo(FLac-NMeA-PyrimAla-cPrA-Phe2F-hL-NMeF-amBCP) (peptide) | 1.95 nM | 168 nM |
| cyclo(FLac-NMeA-PyrimAla-cPrA-Phe2F-hcPrA-NMeF-amBCP) (peptide) | 2 nM | 615 nM |
| cyclo(FLac-NMeA-PyrimAla-hL-Phe2F-Nle-NMe3Pal-amBCP) (peptide) | 228 nM | > 50800 nM |
| cyclo(FLac-NMeA-PyrimAla-rF2Cba-Phe2F-Nle-NMe3Pal-amBCP) isomer 1 (peptide) | 236 nM | > 50800 nM |
| cyclo(FLac-NMeA~PyrimAla-rF2Cba-Phe2F-Nle-NMe3Pal-amBCP) isomer 2 (peptide) | 8190 nM | > 50800 nM |
| cyclo(FLac-NMeDabN3-3Pal-Nle-F2FLac-Nle-NMe3Pal-amBCP) (peptide) | 5590 nM | 3480 nM |
| cyclo(FLac-NMeDabN3-3Pal-Nle-Phe2F-Nle-NMe3Pal-amBCP) (peptide) | 87.6 nM | 3950 nM |
| cyclo(FLac-NMeDabN3-4CF33Pal-Nle-Phe2F-Nle-NMe3Pal-amBCP) (peptide) | 435 nM | 6120 nM |
| cyclo(FLac-NMeDabN3-PyrimAla-Nle-Phe2F-Nle-NMe3Pal-amBCP) (peptide) | 80.9 nM | 11600 nM |
| cyclo(FLac-NMeNle-3Pal-DabN3-Phe2F-Nle-NMe3Pal-amBCP) (peptide) | 3060 nM | 21700 nM |
| cyclo(FLac-NMeNvaF2-PyrimAla-cPrA-Phe2F-hL-NMeF-amBCP) (peptide) | 173 nM | 1770 nM |
| cyclo(FLac-NMeNvaF-3Pal-Nle-Phe2F-Nle-NMe3Pal-amBCP) (peptide) | 297 nM | 20700 nM |
| cyclo(FLac-NMeNvaF-PyrimAla-cPrA-Phe2F-hL-NMeF-amBCP) (peptide) | 26 nM | 1230 nM |
| cyclo(FLac-NMeNvalmid-3Pal-Nle-Phe2F-Nle-NMe3Pal-c3amCblc) (peptide) | 758 nM | > 50800 nM |
| cyclo(FLac-NMeNvalmid-3Pal-Nle-Phe2F-Nle-NMeF-amBCP) (peptide) | 28.9 nM | 5160 nM |
| cyclo(FLac-NMeNvalmid-4CF33Pal-Nle-Phe2F-Nle-NMeF-amBCP) isomer 1 (peptide) | 188 nM | > 50800 nM |
| cyclo(FLac-NMeNvalmid-4CF33Pal-Nle-Phe2F-Nle-NMeF-amBCP) isomer 2 (peptide) | 62.8 nM | > 50800 nM |
| cyclo(FLac-NMeNvalmid-4F3Pal-Nle-Phe2F-Nle-NMeF-amBCP) isomer 1 (peptide) | 101 nM | > 50800 nM |
| cyclo(FLac-NMeNvalmid-4F3Pal-Nle-Phe2F-Nle-NMeF-amBCP) isomer 2 (peptide) | 69.7 nM | > 50800 nM |
| cyclo(FLac-NMeNvalmid-PyrimAla-Nle-F2FLac-Nle-NMe3Pal-amBCP) (peptide) | 1160 nM | > 50800 nM |
| cyclo(FLac-NMeNvalmid-PyrimAla-Nle-Phe2F-Nle-NMe3Pal-amBCP) (peptide) | 27.2 nM | > 50800 nM |
| cyclo(FLac-NMeNvalmid-PyrimAla-Nle-Phe2F-Nle-NMeF-amBCP) isomer 1 (peptide) | 494 nM | > 50800 nM |
| cyclo(FLac-NMeNvalmid-PyrimAla-Nle-Phe2F-Nle-NMeF-amBCP) isomer 2 (peptide) | 25.3 nM | 11100 nM |
| cyclo(FLac-NMeS-3Pal-Nle-Phe2F-Nle-NMe3Pal-amBCP) (peptide) | 466 nM | > 50800 nM |

From patent US20260001914A1, “MACROCYCLIC PEPTIDES TARGETING KRAS” (Merck Sharp & Dohme LLC, priority 2022, published 2026)
